# Measurements taken from patent publication US20230212288A1 (published 2023).
# Tests used:
# [1] = target: T1, human CD3 receptor complex (human, UniProt P07766 23-207; P09693 23-182; P04234 22-171); assay: cell-based or functional assay
# [2] = target: T1, human CD3 receptor complex; assay: flow cytometry on PBMCs of donor alpha; competition of titrated BSAB with 100 nM biotin-conjugated BSAB, PE-streptavidin detection
# Description: (§1) The blood was diluted with the same volume of the phosphate buffered saline (ECO-Servis, Cat. No. B-60201), layered above Ficoll density gradient (ρ=1.077 g/cm³) (“Pan-Eco”, Cat. No. P052) and centrifuged at 800 g and 20±2° C. for 30 minutes. PBMCs were collected at the phase boundary and washed twice with an isotonic phosphate buffered saline. A cell deposit was re-suspended in 15 mL of the DMEM/F12 medium (Sigma, Cat. No. D8900-10L) with 10% fetal bovine serum (GE Healthcare, Cat. No. SV30160) and incubated in a cultural vial (SPL Life Sciences Co, Cat. No. 70075) for attaching monocytes at 37±2° C. for 4 hours. Upon incubation, unattached cells were collected, a cell suspension was centrifuged, a cell deposit was re-suspended in the FACS buffer with a 1:100 Fc Blook solution (BD Pharmingen™, Cat. No. 564220) for inhibiting non-specific binding of Fc-receptors exposed on B-cell membranes. The prepared PBMC suspension with the cell concentration of 4*10⁶/mL was introduced by 50 μL (2*10⁵ cells per well) into a 96-well plate with a V-shaped bottom (Corning Inc, Cat. No. 3894).
# (§2) Then a solution of biotin-conjugated BSAB with the concentration of 300 nM was prepared and introduced into wells with cells by 50 μL (preparation final concentration being 100 nM). […] Cell fluorescence intensity in the PE-channel was measured with the use of the Canto II cytometer. […]
# [3] = target: T1, human CD3 receptor complex; assay: flow cytometry on PBMCs of donor; competition of titrated BSAB with 100 nM biotin-conjugated BSAB, PE-streptavidin detection
# Description: as §1, §2
# [4] = target: T1, human CD3 receptor complex; assay: flow cytometry on CCRF-CEM cells (CD3-positive), FITC anti-human IgG detection
# Description: (§3) Cell suspensions of CD19-positive cell lines (NALM6 (ATCC® CRL-3273™), Toledo (ATCC® CRL-2631™), Namalwa (ATCC® CRL-1432™), Daudi (ATCC® CCL-213™), Ramos (RA 1) (ATCC® CRL-1596™), Raji (ATCC® CCL-86™)) and CD3-positive cell lines (HuT78 (ATCC® TIB-161™), CCRF-CEM (ATCC® CCL-119™), Jurkat (ATCC® TIB-152™)) with the concentration of 2*10⁶ cells/mL were introduced by 30 μL into a 96-well plate with a V-shaped bottom (Corning Inc, Cat. No. 3894). […] When the incubation was over, the cells were twice washed with the FACS buffer and deposited by centrifuging at 1000 rpM and (4±2°) C. 30 μL of a solution of FITC-tagged antibodies directed against human IgG (Donkey F(ab)₂ Anti-Human IgG, Abcam, Cat. No. Ab102437) diluted in the 1:200 ratio were added into each well to the deposited cells, and incubated on ice in the dark for 30 minutes, followed by triple washing with the FACS buffer. Then the cells were fixed by re-suspending the cell deposit in each well in 150 μL of the FIX-buffer (phosphate buffered saline with 1%-solution of formalin). Cell fluorescence intensity in the FITC-channel was measured with the use of the Canto II cytometer.
# [5] = target: T1, human CD3 receptor complex; assay: flow cytometry on Jurkat cells (CD3-positive), FITC anti-human IgG detection
# Description: as §3
# [6] = target: T1, human CD3 receptor complex; assay: cell-based or functional assay; remark: listed apart in the source
# [7] = target: T1, human CD3 receptor complex; assay: flow cytometry on PBMCs of donor beta; competition of titrated BSAB with 100 nM biotin-conjugated BSAB, PE-streptavidin detection
# Description: as §1, §2
# [8] = target: T1, human CD3 receptor complex; assay: flow cytometry on HUT78 cells (CD3-positive), FITC anti-human IgG detection
# Description: as §3
# T1 sequence (P07766 23-207, chain 1 of 3): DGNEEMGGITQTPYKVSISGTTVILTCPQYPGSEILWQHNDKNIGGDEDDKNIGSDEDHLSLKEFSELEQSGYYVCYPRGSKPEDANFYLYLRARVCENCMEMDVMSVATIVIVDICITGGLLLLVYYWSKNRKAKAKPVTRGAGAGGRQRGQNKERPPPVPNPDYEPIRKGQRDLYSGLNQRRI
# T1 sequence (P09693 23-182, chain 2 of 3): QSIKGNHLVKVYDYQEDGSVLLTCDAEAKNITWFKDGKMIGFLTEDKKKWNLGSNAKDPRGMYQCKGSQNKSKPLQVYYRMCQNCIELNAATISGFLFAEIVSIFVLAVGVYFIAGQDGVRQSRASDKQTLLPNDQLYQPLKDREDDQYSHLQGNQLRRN
# T1 sequence (P04234 22-171, chain 3 of 3): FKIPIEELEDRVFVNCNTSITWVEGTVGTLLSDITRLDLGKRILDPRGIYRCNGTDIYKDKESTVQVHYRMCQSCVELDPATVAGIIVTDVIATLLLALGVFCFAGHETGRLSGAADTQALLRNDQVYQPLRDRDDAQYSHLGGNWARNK
binder,measurement,setting,value
400_01_D06 (bispecific antibody) DIQLTQTPASLAVSLGQRATISCKASQSVDYDGDSYLNWYQQIPGQPPKLLIYDASNLVSGIPPRFSGSGSGTDFTLNIHPVEKVDAATYHCQQSTEDPWTFGGGTKLEIKGGSGGAMAQVQLVQSGAEVKKPGSSVKVSCKASGGTFSSYAISWVRQAPGQGLEWMGGIIPIFGTANYAQKFQGRVTITADESTSTAYMEVRSLRSDDTAVYYCVRDRGDYGDITYFDYWGQGTLVTVSSGGGGSGGGGSGGGASNFMLTQPHSVSESPGKTVTISCTGSSGSIASNYVQWYQQRPGSAPTIVIYEDNHRPSGVPDRFSGSIDSSSNSASLTISGLKTEDEADYYCQSYDSSDRVVFGGGTKVTVLGQPAAAGGGGSQVQLQQSGAELVRPGSSVKISCKASGYAFSSYWMNWVKQRPGQGLEWIGQIWPGDGDTNYNGKFKGKATLTADESSSTAYMQLSSLASEDSAVYFCARRETTTVGRYYYAMDYWGQGTSVTVSSASAAVECPPCPAPPVAGPSVFLFPPKPKDTLMISRTPEVTCVVVDVSHEDPEVQFNWYVDGVEVHNAKTKPREEQFNSTFRVVSVLTVVHQDWLNGKEYKCKVSNKGLPAPIEKTISKTKGQPREPQVYTLPPSREEMTKNQVSLTCLVKGFYPSDIAVEWESNGQPENNYKTTPPMLDSDGSFFLYSKLTVDKSRWQQGNVFSCSVMHEALHNHYTQKSLSLSPGK,"Activity (EC50 for activation of Jurkat line cells, pM)",[1],17.5 pM
309_02_F01 (bispecific antibody) DIQLTQTPASLAVSLGQRATISCKASQSVDYDGDSYLNWYQQIPGQPPKLLIYDASNLVSGIPPRFSGSGSGTDFTLNIHPVEKVDAATYHCQQSTEDPWTFGGGTKLEIKGGSGGAMAEVQLVQSGAEVKKPGASVKVSCKASGYTFTGYYMHWVRQAPGQGLEWMGWINPNSGGTNYAQKFQGRVTMTRDTSISTAYMELSSLRSEDTAVYYCARDKRYSSGWYENWGQGTLVTVSSGGGGSGGGGSGGGASNFMLTQPHSVSESPGKTVTISCTRSSGSIASKYVQWYQQRPGSSPTTVIYEDNQRPSGVPDRFSGSIDISSNSASLTISGLKTEDEADYFCQSYDSSSVIFGGGTKLTVLGQPAAAGGGGSQVQLQQSGAELVRPGSSVKISCKASGYAFSSYWMNWVKQRPGQGLEWIGQIWPGDGDTNYNGKFKGKATLTADESSSTAYMQLSSLASEDSAVYFCARRETTTVGRYYYAMDYWGQGTSVTVSSASAAVECPPCPAPPVAGPSVFLFPPKPKDTLMISRTPEVTCVVVDVSHEDPEVQFNWYVDGVEVHNAKTKPREEQFNSTFRVVSVLTVVHQDWLNGKEYKCKVSNKGLPAPIEKTISKTKGQPREPQVYTLPPSREEMTKNQVSLTCLVKGFYPSDIAVEWESNGQPENNYKTTPPMLDSDGSFFLYSKLTVDKSRWQQGNVFSCSVMHEALHNHYTQKSLSLSPGK,"Activity (EC50 for activation of Jurkat line cells, pM)",[1],32.2 pM
400_03_H07 (bispecific antibody) DIQLTQTPASLAVSLGQRATISCKASQSVDYDGDSYLNWYQQIPGQPPKLLIYDASNLVSGIPPRFSGSGSGTDFTLNIHPVEKVDAATYHCQQSTEDPWTFGGGTKLEIKGGSGGAMAQVQLVESGGGVVQPGRSLRLSCAASGFTFSSYSMNWVRQAPGKGLEWVSSISSSSSYIYYADSVKGRFTISRDNAKNSLYLQMNSLRAEDTAVYYCARSGIAAAGFDYWGQGTLVTVSSGGGGSGGGGSGGGASNFMLTQPHSVSESPGKTVTISCARSSGSIASNYVQWYQQRPGSSPTTVIYEDNRRPSGVPDRFSGSFDSSSNSASLTISGLKTEDEADYYCQSYDSSNRVFGGGTKLTVLGQPAAAGGGGSQVQLQQSGAELVRPGSSVKISCKASGYAFSSYWMNWVKQRPGQGLEWIGQIWPGDGDTNYNGKFKGKATLTADESSSTAYMQLSSLASEDSAVYFCARRETTTVGRYYYAMDYWGQGTSVTVSSASAAVECPPCPAPPVAGPSVFLFPPKPKDTLMISRTPEVTCVVVDVSHEDPEVQFNWYVDGVEVHNAKTKPREEQFNSTFRVVSVLTVVHQDWLNGKEYKCKVSNKGLPAPIEKTISKTKGQPREPQVYTLPPSREEMTKNQVSLTCLVKGFYPSDIAVEWESNGQPENNYKTTPPMLDSDGSFFLYSKLTVDKSRWQQGNVFSCSVMHEALHNHYTQKSLSLSPGK,"Activity (EC50 for activation of Jurkat line cells, pM)",[1],328 pM
"309_02_A08 BSAB clone (bispecific antibody, described order VL CD3-VH CD19-VL CD19-VH CD3 with hinge and IgG2 Fc; the tie is not explicit; also called BSAB preparation) DIQLTQTPASLAVSLGQRATISCKASQSVDYDGDSYLNWYQQIPGQPPKLLIYDASNLVSGIPPRFSGSGSGTDFTLNIHPVEKVDAATYHCQQSTEDPWTFGGGTKLEIKGGSGGAMAQVQLVQSGAEVKKPGASVKVSCKASGYTFTGYYMHWVRQAPGQGLEWMGIINPSGGSTSYAQKFQGRVTMTRDTSTSTVYMELSSLRSEDTAVYYCARTGKNYYYYGMDAWGQGTTVTVSSGGGGSGGGGSGGGASNFMLTQPHSVSESPGKTVTISCTRSSGSIARNYVQWYQQRPGSSPTTVIYEDNQRPSGVPDRFSASIDSSSNSASLTISGLQTEDEADYYCQSYDTSNHVVFGGGTKLTVLGQPAAAGGGGSQVQLQQSGAELVRPGSSVKISCKASGYAFSSYWMNWVKQRPGQGLEWIGQIWPGDGDTNYNGKFKGKATLTADESSSTAYMQLSSLASEDSAVYFCARRETTTVGRYYYAMDYWGQGTSVTVSSASAAVECPPCPAPPVAGPSVFLFPPKPKDTLMISRTPEVTCVVVDVSHEDPEVQFNWYVDGVEVHNAKTKPREEQFNSTFRVVSVLTVVHQDWLNGKEYKCKVSNKGLPAPIEKTISKTKGQPREPQVYTLPPSREEMTKNQVSLTCLVKGFYPSDIAVEWESNGQPENNYKTTPPMLDSDGSFFLYSKLTVDKSRWQQGNVFSCSVMHEALHNHYTQKSLSLSPGK",IC50,[2],52.1 nM
same,IC50,[3],62.3 nM
same,EC50,[4],0.4 nM
same,EC50,[5],0.37 nM
same,"Activity (EC50 for activation of Jurkat line cells, pM)",[1],2.2 pM
same,"EC50 of chemiluminescence signal, Raji cells with Jurkat-Luc-NFAT reporter cells",[6],0.0023 nM
same,IC50,[7],66.5 nM
same,EC50,[8],1.2 nM
309_04_A04 (bispecific antibody) DIQLTQTPASLAVSLGQRATISCKASQSVDYDGDSYLNWYQQIPGQPPKLLIYDASNLVSGIPPRFSGSGSGTDFTLNIHPVEKVDAATYHCQQSTEDPWTFGGGTKLEIKGGSGGAMAQVQLQQWGAGLLKPSETLSLTCAVYGGSFSGYYWSWIRQPPGKGLEWIGEISRSGTTNYNSSLKSRVTISVDTSKNQFSLKLSSVTAADTAVYYCARATRNGVFDYWGQGTLVTVSSGGGGSGGGGSGGGASNFMLTQPHSVSESPGKTVTISCTRSSGSIASNYVQWYQQRPGSAPSTVIYEDNQRPSGVPDRFSGSIDSSSNSASLTISGLKTEDEADYYCQSYDSGVVFGGGTKLTVLGQPAAAGGGGSQVQLQQSGAELVRPGSSVKISCKASGYAFSSYWMNWVKQRPGQGLEWIGQIWPGDGDTNYNGKFKGKATLTADESSSTAYMQLSSLASEDSAVYFCARRETTTVGRYYYAMDYWGQGTSVTVSSASAAVECPPCPAPPVAGPSVFLFPPKPKDTLMISRTPEVTCVVVDVSHEDPEVQFNWYVDGVEVHNAKTKPREEQFNSTFRVVSVLTVVHQDWLNGKEYKCKVSNKGLPAPIEKTISKTKGQPREPQVYTLPPSREEMTKNQVSLTCLVKGFYPSDIAVEWESNGQPENNYKTTPPMLDSDGSFFLYSKLTVDKSRWQQGNVFSCSVMHEALHNHYTQKSLSLSPGK,"Activity (EC50 for activation of Jurkat line cells, pM)",[1],3.7 pM
